Reference: patent US20130101549A1 (Biogen, published 2013)

T1: Her2-Fc D1-D2 (MR067)
T1 construct: also called ErbB2-Fc Domains 1-2
T1 chain: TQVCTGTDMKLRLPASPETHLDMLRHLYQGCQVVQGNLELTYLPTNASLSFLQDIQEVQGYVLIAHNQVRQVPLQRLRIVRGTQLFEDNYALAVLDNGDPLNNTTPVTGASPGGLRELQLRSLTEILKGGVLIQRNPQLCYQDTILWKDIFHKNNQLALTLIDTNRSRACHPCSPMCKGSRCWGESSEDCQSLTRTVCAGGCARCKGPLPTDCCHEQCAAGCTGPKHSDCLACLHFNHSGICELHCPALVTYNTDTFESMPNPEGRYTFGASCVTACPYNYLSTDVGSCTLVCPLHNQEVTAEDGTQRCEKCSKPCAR

T2: Her2-Fc D1 (MR066)
T2 construct: also called ErbB2-Fc Domain 1
T2 chain: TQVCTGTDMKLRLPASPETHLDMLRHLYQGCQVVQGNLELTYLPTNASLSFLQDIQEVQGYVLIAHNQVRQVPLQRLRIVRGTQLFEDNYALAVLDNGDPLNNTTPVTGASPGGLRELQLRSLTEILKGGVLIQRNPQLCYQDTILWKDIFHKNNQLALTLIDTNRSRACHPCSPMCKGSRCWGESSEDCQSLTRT


Experiments:
human HER2-Fc [1] = target: T3, human HER2-Fc (human, UniProt P04626 23-652); assay: ELISA on coated huHER2-Fc, HRP anti-human kappa; the number is C of the printed 4-P fit y=(A-D)/(1+(x/C)^B)+D (A -0.004, B 0.92, D 0.931, R^2 1); x axis: Fab equivalent concentration; last point about 13000 ng/ml at OD about 0.73, upper plateau not reached by the points
T3 construct: Bought from R&D Systems: homodimeric fusion of the HER2 extracellular domain and human IgG1 Fc; also called human ErbB2-Fc; rhErbB2-Fc; not shown: Fc fragment of human IgG1

EGFR on MDA-MB-468 cells = target: T4, EGFR on MDA-MB-468 cells (UniProt P00533 25-1210, limits assumed); assay: FACS on MDA-MB-468 cells (EGFR+, HER2-)
T4 construct: whole, on cells; also called MDA-MB-468 tumor cell line (EGFR+, HER2-)

[2] = target: T5, Her2-Fc D1-D2-D3-D4 (MR069); assay: ELISA, HER2-Fc construct captured by anti-huFc, Fab from 1 ug/ml in 5-fold steps, HRP anti-kappa/lambda
T5 construct: made in house, kept apart from the R&D Systems HER2-Fc; also called ErbB2-Fc full length ECD
Experimental: (§1) Nunc Maxisorp ELISA plates were coated with 5 ug/ml rabbit pAbs anti-human Fc gamma in PBS overnight at 4 degrees. Plates were washed one time with PBST (PBS, 0.05% tween 20) and blocked with 1% BSA in PBS for one hour at room temperature. Plates were washed one time with PBST and incubated with 1 ug/ml HER2-Fc fusion protein for one hour. Plates were washed three times with PBST and dilutions of Fab (four 5-fold serial dilutions, starting at 1 ug/ml) in block were added and incubated for ninety minutes. Plates were washed three times with PBST and incubated with 1:2,000 HRP-labelled goat anti-human kappa (Southern Biotech cat#2060-05) and HRP-labelled goat anti-human lambda (Southern Biotech cat#2070-05) in block for one hour at room temperature. Plates were washed three times with PBST, developed with TMB solution for 5 minutes, and stopped with equal volume 1 N H₂SO₄. Absorbance values were read at 450 nm.

Her2-Fc D1-D2 (MR067) = target: T1, Her2-Fc D1-D2 (MR067); assay: as above
Experimental: as §1

Her2-Fc D1 (MR066) = target: T2, Her2-Fc D1 (MR066); assay: as above
Experimental: as §1

Her2-Fc D1-D2-D3 (MR068) = target: T6, Her2-Fc D1-D2-D3 (MR068); assay: as above
T6 construct: also called ErbB2-Fc Domains 1-3
Experimental: as §1

murine HER2-Fc [3] = target: T7, murine HER2-Fc (mouse; human, UniProt P70424 23-653); assay: ELISA on coated muHER2-Fc, HRP anti-human kappa; the number is C of the printed 4-P fit y=(A-D)/(1+(x/C)^B)+D (A 0.002, B 0.792, D 0.827, R^2 0.999); x axis: Fab equivalent concentration; C lies beyond the last point (about 14000 ng/ml, OD about 0.28): extrapolated by the fit
T7 construct: extracellular domain; Bought from R&D Systems; also called murine ErbB2-Fc; not shown: Fc fragment of human IgG1

[4] = target: T8, human HER2/ErbB2 on cells (human, UniProt P04626 23-1255); assay: flow cytometry on CHO cells expressing human HER2
T8 construct: whole, on cells; also called hHER2/ErbB2; wild type HER2/ErbB
Experimental: CHO cells (Chinese Hamster Ovary cells) stably transfected with hHER2 expression vector and selected in G418 containing medium. G418 resistant clones were pooled and split 24 hours prior to the setup of the assay to obtain 70% confluent monolayer. Routinely, CHO cell line was maintained within 20 passages. Cells were lifted with cell dissociation buffer (Gibco catalog #13151-014), counted, washed and adjusted to 1×10⁶ cells/ml and one ml of cells were then added to each tube (12×75 mm tube Falcon catalog #352054). Cells were pelleted and supernatant removed by centrifugation at 1200 rpm for 5 min and 100 μl of diluted antibodies were then added to the cell pellet. Purified Fabs were tested at a starting concentration of either 210 or 60 μg/ml with 1:3 dilutions in FACS buffer, down to 0.001 μg/ml. FACS buffer used throughout the assay was PBS (without Ca^{+±}/Mg^{+±}) containing 1% BSA (Sigma catalog #A-7906) and 0.1% Sodium Azide (Sigma catalog #S2002). Samples were allowed to incubate on ice for 1 hour and 15 minutes then were washed with 2 ml FACS buffer and centrifuged at 1200 rpm for 5 minutes at 4° C. The supernatant was aspirated and 100 μl of the secondary detection antibody was added to each corresponding tube in FACS buffer. Samples were then incubated for 30 minutes on ice, in the dark. Cells were washed as described above, then, re-suspended in 250 μl FACS buffer per tube/sample.
A full titration was performed on MCF7 and SKBR3 tumor cell lines, and human Her2-CHO and murine Her2-CHO cell lines in order to calculate an approximate EC50 (data not shown, see summary in Table 1).

murine HER2-Fc [5] = target: T7, murine HER2-Fc; assay: ELISA on coated muHER2-Fc, HRP anti-human kappa; the number is C of the printed 4-P fit (A -0.002, B 0.6, D 1.035, R^2 1); x axis: Fab equivalent concentration; C lies beyond the last point (about 120 ng/ml, OD about 0.4): extrapolated by the fit
[6] = target: T8, human HER2/ErbB2 on cells; assay: FACS on HER2-expressing cells
human HER2-Fc [7] = target: T3, human HER2-Fc; assay: ELISA on coated HER2-Fc
Experimental: Human and murine ErbB2-Fc were obtained from R&D Systems. Wells of 96-well plates were coated with 2 ug/ml or 0.2 ug/ml of human or murine HER2-Fc by incubation overnight at 4-8° C. with either of these six proteins (80 ul/well of a 0.2 or 2 ug/ml solution in PBS). Wells were emptied, filled completely with a solution of PBS with 1% BSA (blocking buffer) and incubated at room temperature for 1 hour. Wells were emptied, washed twice PBS containing 0.05% Tween 20 (PBST) and filled with the samples (80 ul/well of 3× dilution series of the standard and supernatants in blocking buffer) prepared in another 96-well plate. After a 2-hour incubation at room temperature, the wells were emptied, washed three times with PBST and filled with a solution of HRP-conjugated goat pAbs anti-human kappa chain (80 ul/well of a 2000-fold dilution in blocking buffer). After 1-hour incubation, the wells were emptied and filled with a solution of HRP substrate prepared freshly. The color was left to develop for 3 minutes and was stopped by addition of an equal volume of 1N H₂SO₄. Absorbance was measured at 450 nm using a Plate Reader (SpectraMax, Molecular Devices). The data was processed and graphs were created using SoftMax Pro software.

human HER2-Fc [8] = target: T3, human HER2-Fc; assay: ELISA on coated huHER2-Fc, HRP anti-human kappa; the number is C of the printed 4-P fit (A 0.008, B 1.216, D 0.834, R^2 1); x axis: Fab equivalent concentration

Binder | EC50 (human HER2-Fc [1]) | binding result (EGFR on MDA-MB-468 cells) | binding result [2] | binding result (Her2-Fc D1-D2 (MR067)) | binding result (Her2-Fc D1 (MR066)) | binding result (Her2-Fc D1-D2-D3 (MR068)) | EC50 (murine HER2-Fc [3]) | EC50 [4] | EC50 (murine HER2-Fc [5]) | EC50 [6] | EC50 (human HER2-Fc [7]) | EC50 (human HER2-Fc [8])
BIIB71F10 Fab (Fab, V domains shown, Soluble human Fab; also called Fab 71F10) VH: EVQLLESGGGLVQPGGSLRLSCAASGFTFSSYGMVWVRQAPGKGLEWVSSISSSGGLTWYADSVKGRFTISRDNSKNTLYLQMNSLRAEDTAVYYCASPPGIAVARDYWGQGTLVTVSS VL: DIQMTQSPSSLSASVGDRVTITCRASQGISNYLAWYQQKPGKVPKLLIYAASTLQSGVPSRFSGSGSGTDFTLTISSLQPEDVATYYCQKYNSALLTFGGGTKVEIK | 3.43 µg/mL | no binding | binds | binds | no binding (tested: 1 ug/ml) | binds | 31.8 µg/mL | 60 nM |  |  |  | 
BIIB71F10 Mab (BIIB71F10-134, 71F10 IgG) (antibody, V domains shown, IgG1; also called BIIB71-F10 antibody) VH: EVQLLESGGGLVQPGGSLRLSCAASGFTFSSYGMVWVRQAPGKGLEWVSSISSSGGLTWYADSVKGRFTISRDNSKNTLYLQMNSLRAEDTAVYYCASPPGIAVARDYWGQGTLVTVSS VL: DIQMTQSPSSLSASVGDRVTITCRASQGISNYLAWYQQKPGKVPKLLIYAASTLQSGVPSRFSGSGSGTDFTLTISSLQPEDVATYYCQKYNSALLTFGGGTKVEIKR |  |  |  |  |  |  |  |  | 0.248 µg/mL | 2 nM | 0.07 nM | 0.00634 µg/mL
